In patent publication US20240287479A1, “GLYCOSYLTRANSFERASE MUTANT, AND METHOD FOR CATALYTIC SYNTHESIS OF REBAUDIOSIDE M USING GLYCOSYLTRANSFERASE MUTANT” (XINGHUA GL STEVIA CO., LTD, priority 2021, published 2024):
Where a chain is given by its changes, count along the chain named. Numbers in names are those of the source.

Key:
Type in all cases: biochemical
[1] = Kinetic parameters of purified glycosyltransferases for rebaudioside E; conditions: for Kcat / Km: substrate RebE, purified enzyme
Experimental: (§1) Activities of glycosyltransferase mutants and a WT glycosyltransferase were determined. A 3 mL catalytic reaction system was prepared from the following components: 1.2 mM rebaudioside E, 2 mM UDPG, 3 mM MgCl2, crude enzyme: 1 mg, and 100 mM potassium phosphate buffer with a pH of 7.2: the balance. A catalytic reaction was conducted on a shaker at 37° C. and 200 rpm, where a sample was collected at 0 min and 30 min. Sample treatment: 500 μL of a sample solution was pipetted and added to an EP tube; the EP tube was placed in boiling water at 95° C. for 15 min to stop a reaction, and then centrifuged in a centrifuge at 12,000 rpm for 1 min; and a resulting supernatant was collected and added to a new EP tube, filtered through an organic filter membrane (0.45 μm), and stored in a liquid-phase sample bottle for high-performance liquid chromatography (HPLC) analysis. Definition of an enzyme activity (U): an enzyme amount required for producing 1 μmol of a product within 1 min is defined as 1 enzyme activity unit.
(§2) A final concentration of rebaudioside E was set to 10 μM to 2,000 μM or a final concentration of rebaudioside D was set to 50 μM to 2,000 μM. Rebaudioside E or rebaudioside D solutions of different concentrations each were mixed with an appropriate amount of each of the purified WT UGT76G1 and the mutant S195Q, and an enzyme activity was determined according to the enzyme activity assay method described above. A Michaelis Menten equation was used to calculate Kn, Vmax, Keat, and Keat/Km of the purified WT glycosyltransferase and the glycosyltransferase mutant.

[2] = Kinetic parameters of purified glycosyltransferases for rebaudioside D; conditions: for Kcat / Km: substrate RebD, purified enzyme
Experimental: as §1, §2

[3] = Crude enzyme activity of glycosyltransferase mutants and WT (HPLC); conditions: 1.2 mM rebaudioside E, 2 mM UDPG, crude enzyme 1 mg, 37° C., 30 min
Experimental: as §1
The four mutant strains S195Q-StSUS1, L200Y-StSUS1, T284S-StSUS1, and S285W-StSUS1 screened out in the above conversion experiment were used to produce glycosyltransferase mutants, and the glycosyltransferase mutants and the WT glycosyltransferase UGT76G1 were tested for activities. […] Thus, the optimal mutant strain S195Q-StSUS1 was screened out.

[4] = Preliminary screening: conversion of RebE by crude recombinases; conditions: 40° C., 12 h; for catalytic activity / conversion rate for RebE (in words): RebE 10 g/L
Experimental: (§3) Recombinases were prepared with the mutant strains G87D-StSUS1, S147D-StSUS1, S147N-StSUS1, S195Q-StSUS1, L200Y-StSUS1, T284S-StSUS1, S285W-StSUS1, and G378P-StSUS1 and the WT strain UGT76G1-StSUS1, and then used to convert RebE or RebD to preliminarily screen out relatively-preferred mutants.
The conversion of RebE adopted a 3 mL reaction system including. RebE as a substrate: 10 g/L, sucrose: 30 g/L, crude enzyme: 5 mg/mL, and 100 mM potassium phosphate buffer (pH 7.2): the balance. A RebE conversion reaction was conducted on a shaker at 40° C. and 200 rpm for 12 h, and corresponding conversion rates were shown in FIG. 1.

[5] = Preliminary screening: conversion of RebD by crude recombinases; conditions: 40° C.; for RebD substrate conversion rate relative to UGT76G1-StSUS1: 20 h
Experimental: as §3
The conversion of RebD adopted a 3 mL reaction system including: RebD as a substrate: 1 g/L, sucrose: 3 g/L, crude enzyme: 5 mg/mL, and 100 mM potassium phosphate buffer (pH 7.2): the balance. A RebD conversion reaction was conducted on a shaker at 40° C. and 200 rpm for 6 h and 20 h, and corresponding conversion rates were shown in FIG. 2.

B1: S195Q: UGT76G1 (SEQ ID NO: 1) mutant, position 195 serine to glutamine (protein)
chain: MENKTETTVRRRRRIILFPVPFQGHINPILQLANVLYSKGFSITIFHTNFNKPKTSNYPHFTFRFILDNDPQDERISNLPTHGPLAGMRIPIINEHGADELRRELELLMLASEEDEEVSCLITDALWYFAQSVADSLNLRRLVLMTSSLFNFHAHVSLPQFDELGYLDPDDKTRLEEQASGFPMLKVKDIKSAYQNWQILKEILGKMIKQTKASSGVIWNSFKELEESELETVIREIPAPSFLIPLPKHLTASSSSLLDHDRTVFQWLDQQPPSSVLYVSFGSTSEVDEKDFLEIARGLVDSKQSFLWVVRPGFVKGSTWVEPLPDGFLGERGRIVKWVPQQEVLAHGAIGAFWTHSGWNSTLESVCEGVPMIFSDFGLDQPLNARYMSDVLKVGVYLENGWERGEIANAIRRVMVDEEGEYIRQNARVLKQKADVSLMKGGSSYESLESLVSYISSL
modifications: The sequence is synthetized.
Kcat [1]: 1.48 ± 0.01 s⁻¹
Km [1]: 56.3 ± 2.02 µM
improvement of catalytic efficiency compared with the WT glycosyltransferase ([1]; substrate rebaudioside E): 2.2 times
Kcat [2]: 0.25 ± 0.004 s⁻¹
Km [2]: 214 ± 14.5 µM
improvement of affinity compared with the WT glycosyltransferase ([2]; substrate rebaudioside D): 2.2 times
improvement of catalytic efficiency compared with the WT glycosyltransferase ([2]; substrate rebaudioside D): 2.8 times
enzyme activity (in words) [3]: highest enzyme activity
enzyme activity relative to WT glycosyltransferase UGT76G1 [3]: 1.3 times

B2: S147D-StSUS1: recombinase (crude enzyme) from E. coli BL21 (DE3) co-expressing mutant S147D and sucrose synthase StSUS1 (protein)
chain: B1 chain with S147D, Q195S
catalytic activity / conversion rate for RebE (in words) [4]: low conversion rate

B3: T284S-StSUS1: recombinase (crude enzyme) from E. coli BL21 (DE3) co-expressing mutant T284S and sucrose synthase StSUS1 (protein)
chain: B1 chain with Q195S, T284S
RebE conversion rate relative to UGT76G1-StSUS1 [4]: 1.1 times

B4: S195Q-StSUS1: recombinase (crude enzyme) from E. coli BL21 (DE3) co-expressing mutant S195Q and sucrose synthase StSUS1 (protein)
chain: B1 chain
RebD substrate conversion rate relative to UGT76G1-StSUS1 [5]: 1.3 times
RebE conversion rate relative to UGT76G1-StSUS1 [4]: 1.1 times

B5: S147N-StSUS1: recombinase (crude enzyme) from E. coli BL21 (DE3) co-expressing mutant S147N and sucrose synthase StSUS1 (protein)
chain: B1 chain with S147N, Q195S
catalytic activity / conversion rate for RebE (in words) [4]: basically no catalytic activity

B6: L200Y: UGT76G1 (SEQ ID NO: 1) mutant, position 200 leucine to tyrosine (protein)
chain: B1 chain with Q195S, L200Y
modifications: The sequence is synthetized.
enzyme activity (in words) [3]: low enzyme activity

B7: S285W-StSUS1: recombinase (crude enzyme) from E. coli BL21 (DE3) co-expressing mutant S285W and sucrose synthase StSUS1 (protein)
chain: B1 chain with Q195S, S285W
RebE conversion rate relative to UGT76G1-StSUS1 [4]: 1.1 times

B8: UGT76G1: wild-type Stevia rebaudiana-derived glycosyltransferase, amino acid sequence SEQ ID NO: 1 (protein)
chain: B1 chain with Q195S
modifications: The sequence is synthetized.
Kcat [1]: 2.00 ± 0.03 s⁻¹
Km [1]: 170 ± 12.6 µM
Kcat [2]: 0.20 ± 0.005 s⁻¹
Km [2]: 478 ± 33 µM

B9: G378P-StSUS1: recombinase (crude enzyme) from E. coli BL21 (DE3) co-expressing mutant G378P and sucrose synthase StSUS1 (protein)
chain: B1 chain with Q195S, G378P
catalytic activity / conversion rate for RebE (in words) [4]: basically no catalytic activity

B10: L200Y-StSUS1: recombinase (crude enzyme) from E. coli BL21 (DE3) co-expressing mutant L200Y and sucrose synthase StSUS1 (protein)
chain: B1 chain with Q195S, L200Y
catalytic effect on RebD (in words) ([5]; 6 h): optimal catalytic effect
RebD substrate conversion rate relative to UGT76G1-StSUS1 [5]: 1.3 times
RebE conversion rate relative to UGT76G1-StSUS1 [4]: 1.1 times
